The chains are these.
B1: Ac-[D-Pro24, Cha27,28, Aib31, Leu(Me)36]-PYY(23-36) (peptide)
peptide: Ac-S[dP]RH[Cha][Cha]NL[Aib]TRQR[tBuAla]-NH2
SMILES: CC(=O)N[C@@H](CO)C(=O)N1CCC[C@@H]1C(=O)N[C@@H](CCCNC(=N)N)C(=O)N[C@@H](Cc1c[nH]cn1)C(=O)N[C@@H](CC1CCCCC1)C(=O)N[C@@H](CC1CCCCC1)C(=O)N[C@@H](CC(N)=O)C(=O)N[C@@H](CC(C)C)C(=O)NC(C)(C)C(=O)N[C@H](C(=O)N[C@@H](CCCNC(=N)N)C(=O)N[C@@H](CCC(N)=O)C(=O)N[C@@H](CCCNC(=N)N)C(=O)N[C@@H](CC(C)(C)C)C(N)=O)[C@@H](C)O
notes: also called compound No. 198
B2: Ac-[D-Pro24, Cha27,28, Aib31, homoLeu36]-PYY(23-36) (peptide)
peptide: Ac-S[dP]RH[Cha][Cha]NL[Aib]TRQR[hLeu]-NH2
SMILES: CC(=O)N[C@@H](CO)C(=O)N1CCC[C@@H]1C(=O)N[C@@H](CCCNC(=N)N)C(=O)N[C@@H](Cc1c[nH]cn1)C(=O)N[C@@H](CC1CCCCC1)C(=O)N[C@@H](CC1CCCCC1)C(=O)N[C@@H](CC(N)=O)C(=O)N[C@@H](CC(C)C)C(=O)NC(C)(C)C(=O)N[C@H](C(=O)N[C@@H](CCCNC(=N)N)C(=O)N[C@@H](CCC(N)=O)C(=O)N[C@@H](CCCNC(=N)N)C(=O)N[C@@H](CCC(C)C)C(N)=O)[C@@H](C)O
notes: also called compound No. 199
B3: 4-Aminomethylbenzoyl-[Ala26, Ile28,31, Phe36]-PYY(25-36) (peptide)
peptide: [4Amb]RAYINLITRQRF-NH2
modifications: N-terminus assumed
SMILES: CC[C@H](C)[C@H](NC(=O)[C@H](Cc1ccc(O)cc1)NC(=O)[C@H](C)NC(=O)[C@H](CCCNC(=N)N)NC(=O)c1ccc(CN)cc1)C(=O)N[C@@H](CC(N)=O)C(=O)N[C@@H](CC(C)C)C(=O)N[C@H](C(=O)N[C@H](C(=O)N[C@@H](CCCNC(=N)N)C(=O)N[C@@H](CCC(N)=O)C(=O)N[C@@H](CCCNC(=N)N)C(=O)N[C@@H](Cc1ccccc1)C(N)=O)[C@@H](C)O)[C@@H](C)CC
notes: also called compound No. 6
B4: 4-Aminomethylbenzoyl-[Gly26, Ile28,31]-PYY(25-36) (peptide)
peptide: [4Amb]RGYINLITRQRY-NH2
modifications: N-terminus assumed
SMILES: CC[C@H](C)[C@H](NC(=O)[C@H](Cc1ccc(O)cc1)NC(=O)CNC(=O)[C@H](CCCNC(=N)N)NC(=O)c1ccc(CN)cc1)C(=O)N[C@@H](CC(N)=O)C(=O)N[C@@H](CC(C)C)C(=O)N[C@H](C(=O)N[C@H](C(=O)N[C@@H](CCCNC(=N)N)C(=O)N[C@@H](CCC(N)=O)C(=O)N[C@@H](CCCNC(=N)N)C(=O)N[C@@H](Cc1ccc(O)cc1)C(N)=O)[C@@H](C)O)[C@@H](C)CC
notes: also called compound No. 50
B5: 4-Aminomethylbenzoyl-[Ala26, Ile31]-PYY(25-36) (peptide)
peptide: [4Amb]RAYLNLITRQRY-NH2
modifications: N-terminus assumed
SMILES: CC[C@H](C)[C@H](NC(=O)[C@H](CC(C)C)NC(=O)[C@H](CC(N)=O)NC(=O)[C@H](CC(C)C)NC(=O)[C@H](Cc1ccc(O)cc1)NC(=O)[C@H](C)NC(=O)[C@H](CCCNC(=N)N)NC(=O)c1ccc(CN)cc1)C(=O)N[C@H](C(=O)N[C@@H](CCCNC(=N)N)C(=O)N[C@@H](CCC(N)=O)C(=O)N[C@@H](CCCNC(=N)N)C(=O)N[C@@H](Cc1ccc(O)cc1)C(N)=O)[C@@H](C)O
notes: also called compound No. 20
B6: 4-Aminomethylbenzoyl-[Ala26, Ile28, Phe31]-PYY(25-36) (peptide)
peptide: [4Amb]RAYINLFTRQRY-NH2
modifications: N-terminus assumed
SMILES: CC[C@H](C)[C@H](NC(=O)[C@H](Cc1ccc(O)cc1)NC(=O)[C@H](C)NC(=O)[C@H](CCCNC(=N)N)NC(=O)c1ccc(CN)cc1)C(=O)N[C@@H](CC(N)=O)C(=O)N[C@@H](CC(C)C)C(=O)N[C@@H](Cc1ccccc1)C(=O)N[C@H](C(=O)N[C@@H](CCCNC(=N)N)C(=O)N[C@@H](CCC(N)=O)C(=O)N[C@@H](CCCNC(=N)N)C(=O)N[C@@H](Cc1ccc(O)cc1)C(N)=O)[C@@H](C)O
notes: also called compound No. 59
B7: 4-Aminomethylbenzoyl-[Ala26, Ile28,31, Tyr30]-PYY(25-36) (peptide)
peptide: [4Amb]RAYINYITRQRY-NH2
modifications: N-terminus assumed
SMILES: CC[C@H](C)[C@H](NC(=O)[C@H](Cc1ccc(O)cc1)NC(=O)[C@H](C)NC(=O)[C@H](CCCNC(=N)N)NC(=O)c1ccc(CN)cc1)C(=O)N[C@@H](CC(N)=O)C(=O)N[C@@H](Cc1ccc(O)cc1)C(=O)N[C@H](C(=O)N[C@H](C(=O)N[C@@H](CCCNC(=N)N)C(=O)N[C@@H](CCC(N)=O)C(=O)N[C@@H](CCCNC(=N)N)C(=O)N[C@@H](Cc1ccc(O)cc1)C(N)=O)[C@@H](C)O)[C@@H](C)CC
notes: also called compound No. 57
B8: 4-Aminomethylbenzoyl-[Arg26, Ile28,31]-PYY(25-36) (peptide)
peptide: [4Amb]RRYINLITRQRY-NH2
modifications: N-terminus assumed
SMILES: CC[C@H](C)[C@H](NC(=O)[C@H](Cc1ccc(O)cc1)NC(=O)[C@H](CCCNC(=N)N)NC(=O)[C@H](CCCNC(=N)N)NC(=O)c1ccc(CN)cc1)C(=O)N[C@@H](CC(N)=O)C(=O)N[C@@H](CC(C)C)C(=O)N[C@H](C(=O)N[C@H](C(=O)N[C@@H](CCCNC(=N)N)C(=O)N[C@@H](CCC(N)=O)C(=O)N[C@@H](CCCNC(=N)N)C(=O)N[C@@H](Cc1ccc(O)cc1)C(N)=O)[C@@H](C)O)[C@@H](C)CC
notes: also called compound No. 18
B9: 4-Aminomethylbenzoyl-[Ala26, Phe28, Ile31]-PYY(25-36) (peptide)
peptide: [4Amb]RAYFNLITRQRY-NH2
modifications: N-terminus assumed
SMILES: CC[C@H](C)[C@H](NC(=O)[C@H](CC(C)C)NC(=O)[C@H](CC(N)=O)NC(=O)[C@H](Cc1ccccc1)NC(=O)[C@H](Cc1ccc(O)cc1)NC(=O)[C@H](C)NC(=O)[C@H](CCCNC(=N)N)NC(=O)c1ccc(CN)cc1)C(=O)N[C@H](C(=O)N[C@@H](CCCNC(=N)N)C(=O)N[C@@H](CCC(N)=O)C(=O)N[C@@H](CCCNC(=N)N)C(=O)N[C@@H](Cc1ccc(O)cc1)C(N)=O)[C@@H](C)O
notes: also called compound No. 22
B10: 4-Aminomethylbenzoyl-[Ala26, Trp27, Ile28,31]-PYY(25-36) (peptide)
peptide: [4Amb]RAWINLITRQRY-NH2
modifications: N-terminus assumed
SMILES: CC[C@H](C)[C@H](NC(=O)[C@H](Cc1c[nH]c2ccccc12)NC(=O)[C@H](C)NC(=O)[C@H](CCCNC(=N)N)NC(=O)c1ccc(CN)cc1)C(=O)N[C@@H](CC(N)=O)C(=O)N[C@@H](CC(C)C)C(=O)N[C@H](C(=O)N[C@H](C(=O)N[C@@H](CCCNC(=N)N)C(=O)N[C@@H](CCC(N)=O)C(=O)N[C@@H](CCCNC(=N)N)C(=O)N[C@@H](Cc1ccc(O)cc1)C(N)=O)[C@@H](C)O)[C@@H](C)CC
notes: also called compound No. 51
B11: 4-Aminomethylbenzoyl-[Pro26, Ile28,31]-PYY(25-36) (peptide)
peptide: [4Amb]RPYINLITRQRY-NH2
modifications: N-terminus assumed
SMILES: CC[C@H](C)[C@H](NC(=O)[C@H](Cc1ccc(O)cc1)NC(=O)[C@@H]1CCCN1C(=O)[C@H](CCCNC(=N)N)NC(=O)c1ccc(CN)cc1)C(=O)N[C@@H](CC(N)=O)C(=O)N[C@@H](CC(C)C)C(=O)N[C@H](C(=O)N[C@H](C(=O)N[C@@H](CCCNC(=N)N)C(=O)N[C@@H](CCC(N)=O)C(=O)N[C@@H](CCCNC(=N)N)C(=O)N[C@@H](Cc1ccc(O)cc1)C(N)=O)[C@@H](C)O)[C@@H](C)CC
notes: also called compound No. 19
B12: 4-Aminomethylbenzoyl-[Ala26, Trp28, Ile31]-PYY(25-36) (peptide)
peptide: [4Amb]RAYWNLITRQRY-NH2
modifications: N-terminus assumed
SMILES: CC[C@H](C)[C@H](NC(=O)[C@H](CC(C)C)NC(=O)[C@H](CC(N)=O)NC(=O)[C@H](Cc1c[nH]c2ccccc12)NC(=O)[C@H](Cc1ccc(O)cc1)NC(=O)[C@H](C)NC(=O)[C@H](CCCNC(=N)N)NC(=O)c1ccc(CN)cc1)C(=O)N[C@H](C(=O)N[C@@H](CCCNC(=N)N)C(=O)N[C@@H](CCC(N)=O)C(=O)N[C@@H](CCCNC(=N)N)C(=O)N[C@@H](Cc1ccc(O)cc1)C(N)=O)[C@@H](C)O
notes: also called compound No. 23
B13: 4-Aminomethylbenzoyl-[Ala26, Ile28,31, Ser32]-PYY(25-36) (peptide)
peptide: [4Amb]RAYINLISRQRY-NH2
modifications: N-terminus assumed
SMILES: CC[C@H](C)[C@H](NC(=O)[C@H](Cc1ccc(O)cc1)NC(=O)[C@H](C)NC(=O)[C@H](CCCNC(=N)N)NC(=O)c1ccc(CN)cc1)C(=O)N[C@@H](CC(N)=O)C(=O)N[C@@H](CC(C)C)C(=O)N[C@H](C(=O)N[C@@H](CO)C(=O)N[C@@H](CCCNC(=N)N)C(=O)N[C@@H](CCC(N)=O)C(=O)N[C@@H](CCCNC(=N)N)C(=O)N[C@@H](Cc1ccc(O)cc1)C(N)=O)[C@@H](C)CC
notes: also called compound No. 60

Non-standard residues stand in square brackets, D forms with d. No end group written: not given here. tBuAla = CC(C)(C)C[C@H](N)C(=O)O; Cha = N[C@@H](CC1CCCCC1)C(=O)O; hLeu = CC(C)CC[C@H](N)C(=O)O; 4Amb = NCc1ccc(C(=O)O)cc1; Aib = CC(C)(N)C(=O)O

One assay concerns the target T1, human Y2 receptor (human, UniProt P49146 1-381).
T1 construct: whole, on cells; used as membrane fraction of hY2R/CHO cells; also called human NPY2R; hY2R
T1 sequence (looked up): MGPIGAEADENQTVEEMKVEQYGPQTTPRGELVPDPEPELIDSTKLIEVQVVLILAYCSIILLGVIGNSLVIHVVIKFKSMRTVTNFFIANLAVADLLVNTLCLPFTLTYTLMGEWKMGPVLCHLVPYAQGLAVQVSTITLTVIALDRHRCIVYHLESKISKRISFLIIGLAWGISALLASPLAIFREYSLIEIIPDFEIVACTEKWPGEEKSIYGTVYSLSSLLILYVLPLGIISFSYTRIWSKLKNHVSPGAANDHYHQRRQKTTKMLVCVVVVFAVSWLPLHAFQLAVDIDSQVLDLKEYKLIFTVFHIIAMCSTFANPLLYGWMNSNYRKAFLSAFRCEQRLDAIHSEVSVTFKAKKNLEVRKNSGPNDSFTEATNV
Put plainly: RBA: [125I]-PYY displacement, hY2R/CHO membranes. A digest of the protocol: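 Bound radioligand was collected by filtration on PEI-treated GF/C filters, washed with Tris/MgCl₂/NaCl/CHAPS buffer pH 7.4, and counted by scintillation; IC₅₀ values were calculated.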
On to B1, for which the “IC50 Ratio (vs PYY(3-36))” value stood at 12 ratio.
Still for that read-out and setting: next, B2: 20 ratio.
For the molecule B3, the “IC50 Ratio (vs PYY(3-36))” value came to 5.1 ratio.
On to B4, for which the “IC50 Ratio (vs PYY(3-36))” value was determined as 7.1 ratio.
Consider B5, for which the “IC50 Ratio (vs PYY(3-36))” value was determined as 2.8 ratio.
B6: the “IC50 Ratio (vs PYY(3-36))” value worked out at 16 ratio.
Consider B7, for which the “IC50 Ratio (vs PYY(3-36))” value is 2.8 ratio.
With B8, the “IC50 Ratio (vs PYY(3-36))” value worked out at 4 ratio.
Still for that read-out and setting: next, B9: 4.1 ratio; B10: 9.5 ratio; B11: 45 ratio.
The same measure, in the same setting: in the case of B12 it was 3.4 ratio.
On to B13, for which the “IC50 Ratio (vs PYY(3-36))” value came out at 180 ratio.

Another assay has as its target T1, human Y2 receptor. Put plainly: cell-based or functional assay.
For B1, the “GBA EC50 Ratio (vs PYY(3-36)), [35S]GTPγS” value (“GBA EC50 Ratio” for short) turned out to be 7.1 ratio.
B2: the “GBA EC50 Ratio” value worked out at 8.5 ratio.
In the case of B3, the “GBA EC50 Ratio” value worked out at 5.9 ratio.
For B4, the “GBA EC50 Ratio” value was 4.6 ratio.
As to B5, the “GBA EC50 Ratio” value was determined as 2 ratio.
With B6, the “GBA EC50 Ratio” value worked out at 6.6 ratio.
Still for that read-out and setting: in the case of B7 it was 1.9 ratio; in that of B8, 3 ratio.
With B9, the “GBA EC50 Ratio” value was determined as 3.5 ratio.
For B10, the “GBA EC50 Ratio” value was found to be 5.3 ratio.
On the same count and under the same terms, in the case of B11 it was 25 ratio.
B12: the “GBA EC50 Ratio” value amounted to 5 ratio.
Regarding B13, the “GBA EC50 Ratio” value came to 44 ratio.
